# “And” between values parts separate entries of the source, which are not always exact repeats. Identical values can stand only once.
# B1: GST fused with the carboxy-terminal domain of ezrin (other)
# chain: REEKHQKQLERQQLETEKKRRETVEREKEQMMREKEELMLRLQDYEEKTKKAERELSEQIQRALQLEEERKRAQEEAERLEADRMAALRAKEELERQAVDQIKSQEQLAAELAEYTAKIALLEEARRRKEDEVEEWQHRAKEAQDDLVKTKEELHLVMTAPPPPPPPVYEPVSYHVQESLQDEGAEPTGYSAELSSEGIRDDRNEEKRITEAEKNERVQRQLLTLSSELSQARDENKRTHNDIIHNENMRQGRDKYKTLRQIRQGNTKQRIDEFEAL
# notes: also called GST-Ezrin-CT; C-terminus of ezrin; not shown: glutathione S-transferase (GST) tag
# Experiments:
# [1] = biological target: gD-tagged wild-type ErbB2 (human) (UniProt P04626); experiment: cell-based or functional assay
# endogenous EGFR = biological target: T1, endogenous EGFR (human, UniProt P00533 25-1210); experiment: GST pull-down from HBMEC lysates
# T1 construct: whole, on cells; Endogenous receptor of HBMECs, from lysates; also called endogenous EGF receptors
# Description: (§1) Clarified lysates were incubated with GST fusion proteins (20-30 mg) bound to glutathione-Sepharose beads for 2 h at 4° C. Beads were washed three times with lysis buffer, and bound proteins were eluted in Laemmli sample buffer and separated by SDS-PAGE for analysis by western blotting.
# [2] = biological target: T2, gD-tagged wild-type ErbB2 (human, UniProt P04626 23-1255); experiment: GST pull-down from HBMEC lysates, anti-gD western blot
# T2 construct: whole, on cells; Expressed in HBMECs (human endothelial cells); also called gD-ErbB2-WT; gD-ErbB2 WT
# Description: as §1
Molecule,ErbB2-induced cell proliferation of HBMECs [1],binding result (endogenous EGFR),binding result [2]
VSV-g-tagged ezrin FERM domain (from UniProt P15311 1-295),85 % reduction and 70 % reduction,–,–
B1,–,no binding,no binding
